From patent US20240076386

Experiment: AC-SINS self-interaction

Polyreactivity negative control
AC-SINS (wavelength of maximum absorbance relative to blank, nm): 1 nm
